The Human Domainome abundance scans (Beltran et al. 2025)
± gives the uncertainty stated by the source.

B1: Pyruvate dehydrogenase protein X component, mitochondrial, residues 181 to 227; numbered along this chain, O00330 (parent)
chain: RFRLSPAARNILEKHSLDASQGTATGPRGIFTKEDALKLVQLKQTGK

Variants of: B1
Assay: abundance fitness (aPCA) (normalised: wild type 0, dead -1); higher = more abundant; growth selection in yeast, the domain comes from the species named
Conditions: Homo sapiens

Variant	abundance fitness
RFRLSPAARNILEKHSEDASQGTATGPRGIFTKEDALKLVQLKQTGK	-0.33 ± 0.068
RFRLSPAARNILEKHSRDASQGTATGPRGIFTKEDALKLVQLKQTGK	-0.856 ± 0.082
RFRLSPAARNILEKHSLDASQGTATGPSGIFTKEDALKLVQLKQTGK	-0.146 ± 0.072
RFRLSPAARNILEKHSLDASQGTATGPDGIFTKEDALKLVQLKQTGK	0.259 ± 0.1
RFRLSPAARNILEKHSLDASQGVATGPRGIFTKEDALKLVQLKQTGK	0.006 ± 0.058
RFRLSPAARNILEKHSLDASQGHATGPRGIFTKEDALKLVQLKQTGK	-0.326 ± 0.087
RFRLSPAARNILEKHSLDASQGDATGPRGIFTKEDALKLVQLKQTGK	-0.058 ± 0.079
RFRLSPAARNILEKHSLDASQGTATGPRGIFTKEDALKLVQNKQTGK	-0.288 ± 0.24
RFRLSPAARNILEKHSLDASQGTATGPRGIFTKEDALKLVQPKQTGK	-0.347 ± 0.1
RFRLSPAARNILEKHSLDASQGTATGPRGFFTKEDALKLVQLKQTGK	-0.152 ± 0.05
RFRLSPAARNILEKHSLDASQGTATGPRGHFTKEDALKLVQLKQTGK	-0.359 ± 0.15
RFRLSPAARNILEKHSLDASQGTATGPRGIFTKEDALKLVQLKRTGK	-0.14 ± 0.061
RFRLSPAARNILEKHSLDASQGTATGPRGIFTKEDALKLVQLKKTGK	0.114 ± 0.094
RFRLSPAARNILEDHSLDASQGTATGPRGIFTKEDALKLVQLKQTGK	-0.172 ± 0.058
RFRLSPAARNILERHSLDASQGTATGPRGIFTKEDALKLVQLKQTGK	-0.293 ± 0.053
RFRLSPAARNILESHSLDASQGTATGPRGIFTKEDALKLVQLKQTGK	-0.279 ± 0.054
RFRLSPAARNILENHSLDASQGTATGPRGIFTKEDALKLVQLKQTGK	-0.05 ± 0.073
RFRLSPTARNILEKHSLDASQGTATGPRGIFTKEDALKLVQLKQTGK	0.01 ± 0.073
RFRLSPAARNILEKHSLDASQGTATGPRGIFTKEDGLKLVQLKQTGK	-0.513 ± 0.051
RFRLSPAARNILEKHSLDASQGTATGPRGIFTKEDCLKLVQLKQTGK	-0.339 ± 0.11
RFRLSPAARNILEKHSLDASQGTATGPRGIFTKEDILKLVQLKQTGK	-0.947 ± 0.078
RFRLSPAARNILEKHSLDASQGTATGPRGIFTKEDVLKLVQLKQTGK	-0.823 ± 0.057
RFRLSPAARNILEKHHLDASQGTATGPRGIFTKEDALKLVQLKQTGK	-0.026 ± 0.079
RFRLSPAARNILEKHSLDASQGTATGPRGIFTKEDALKLVQLKQTGH	-0.156 ± 0.48
RFRLSPAARNILEKHSLRASQGTATGPRGIFTKEDALKLVQLKQTGK	-0.707 ± 0.056
RFRLSPAARNIAEKHSLDASQGTATGPRGIFTKEDALKLVQLKQTGK	-0.317 ± 0.048
RFRLSPAARNIFEKHSLDASQGTATGPRGIFTKEDALKLVQLKQTGK	-0.584 ± 0.13
RFRLSPAARNIWEKHSLDASQGTATGPRGIFTKEDALKLVQLKQTGK	-0.765 ± 0.11

Variant	abundance fitness
RFRLSPAFRNILEKHSLDASQGTATGPRGIFTKEDALKLVQLKQTGK	-0.683 ± 0.12
RFRLSPAARNILEKHSLDAMQGTATGPRGIFTKEDALKLVQLKQTGK	-0.18 ± 0.075
RFRLSFAARNILEKHSLDASQGTATGPRGIFTKEDALKLVQLKQTGK	-0.35 ± 0.08
RFRLSNAARNILEKHSLDASQGTATGPRGIFTKEDALKLVQLKQTGK	-0.053 ± 0.076
RFRLSPAARNVLEKHSLDASQGTATGPRGIFTKEDALKLVQLKQTGK	-0.314 ± 0.053
RFRLSPAARNILEKHSLDASQGTATGPRGIFTIEDALKLVQLKQTGK	0.047 ± 0.16
RFRLSPAARNILEKHSLDASQGTATGPRGIFTWEDALKLVQLKQTGK	-0.762 ± 0.16
RFRLSPAARNILEKHSLDASQGTATGPRGIFTHEDALKLVQLKQTGK	-0.039 ± 0.15
RFRLSPAARNILEKHSLDASQGTATGPRGIFTKEDALALVQLKQTGK	-0.105 ± 0.065
RFRLSPAARNILEKHSLDASQGTATGPRGIFTKEDALNLVQLKQTGK	-0.258 ± 0.13
RFRLSPAARNILEKHSLDASQGTATGPRGIFTKEDALDLVQLKQTGK	-0.577 ± 0.23
RFRLSPAARNILEKHSLDASQGTATGPRGIFTKEDALHLVQLKQTGK	-0.149 ± 0.12
RFRLSPAARNILEKHSLDASQGTATGPRGIFTKEDALCLVQLKQTGK	-0.453 ± 0.087
RFRLSPAARHILEKHSLDASQGTATGPRGIFTKEDALKLVQLKQTGK	-0.086 ± 0.058
PFRLSPAARNILEKHSLDASQGTATGPRGIFTKEDALKLVQLKQTGK	-1.1 ± 0.25
QFRLSPAARNILEKHSLDASQGTATGPRGIFTKEDALKLVQLKQTGK	-0.362 ± 0.32
WFRLSPAARNILEKHSLDASQGTATGPRGIFTKEDALKLVQLKQTGK	-0.651 ± 0.16
RFMLSPAARNILEKHSLDASQGTATGPRGIFTKEDALKLVQLKQTGK	-0.091 ± 0.077
RFWLSPAARNILEKHSLDASQGTATGPRGIFTKEDALKLVQLKQTGK	-0.119 ± 0.046
RFPLSPAARNILEKHSLDASQGTATGPRGIFTKEDALKLVQLKQTGK	-0.188 ± 0.073
RFYLSPAARNILEKHSLDASQGTATGPRGIFTKEDALKLVQLKQTGK	0.109 ± 0.077
RFRLSPAARNILEKHSLDASQGTATGPRGIFTKPDALKLVQLKQTGK	-0.714 ± 0.13
RFRLSPAARNILEKHSLDASQGTATGPRGIFTKQDALKLVQLKQTGK	0.054 ± 0.08
RFRLSPAARNILEKHSLDASQGTATMPRGIFTKEDALKLVQLKQTGK	-0.435 ± 0.069
RFRLSPAARNILEKHSLDASQGTATFPRGIFTKEDALKLVQLKQTGK	-0.642 ± 0.081
RFRLSPAARNILEKHSLDASQGTATYPRGIFTKEDALKLVQLKQTGK	-0.8 ± 0.17
RFRLSPAARNILEKHSLDASQGTATAPRGIFTKEDALKLVQLKQTGK	-0.603 ± 0.056
